Data on 2 proteins can be found in article doi:10.1101/2022.10.05.510932 (bioRxiv, 2022).

The data set “crystal structure” concerns the molecule itself. Kind of data set: crystal structure.
The data set “cryo-EM structure” concerns the molecule itself. Kind of data set: cryo-EM structure.

B1: truncated KpFtsZ (residues 11-316) (domain or fragment, Klebsiella pneumoniae, UniProt W9BCK7 11-316, looked up)
chain: AVIKVIGVGGGGGNAVEHMVRERIEGVEFFAVNTDAQALRKTAVGQTIQIGSGITKGLGAGANPEVGRNAADEDREALRAALDGADMVFIAAGMGGGTGTGAAPVVAEVAKDLGILTVAVVTKPFNFEGKKRMAFAEQGITELSKHVDSLITIPNDKLLKVLGRGISLLDAFGAANDVLKGAVQGIAELITRPGLMNVDFADVRTVMSEMGYAMMGSGVASGEDRAEEAAEMAISSPLLEDIDLSGARGVLVNITAGFDLRLDEFETVGNTIRAFASDNATVVIGTSLDPDMNDELRVTVVATGIG
On to B1, for which, in “crystal structure”, the binding result is recorded as “binds”.

B2: FtsZ from Klebsiella pneumoniae, full length, tag removed (natural protein, UniProt W9BCK7 1-383, looked up)
chain: MFEPMELTNDAVIKVIGVGGGGGNAVEHMVRERIEGVEFFAVNTDAQALRKTAVGQTIQIGSGITKGLGAGANPEVGRNAADEDREALRAALDGADMVFIAAGMGGGTGTGAAPVVAEVAKDLGILTVAVVTKPFNFEGKKRMAFAEQGITELSKHVDSLITIPNDKLLKVLGRGISLLDAFGAANDVLKGAVQGIAELITRPGLMNVDFADVRTVMSEMGYAMMGSGVASGEDRAEEAAEMAISSPLLEDIDLSGARGVLVNITAGFDLRLDEFETVGNTIRAFASDNATVVIGTSLDPDMNDELRVTVVATGIGMDKRPEITLVTNKQVQQPVMDRYQQHGMSPLTQEQKPAAKVVNDNTPQTAKEPDYLDIPAFLRKQAD
As for B2, the binding result in “cryo-EM structure” is reported as “binds”.
